One block for each binder: values may come before it.
Columns and labels:
recombinant CD3 proteins [1] = target: T1, recombinant CD3 proteins (UniProt P07766 23-126); experiment: Octet BLI, recombinant CD3; Full R^2 0.9599
T1 construct: elsewhere it uses human CD3 E/D and E/G heterodimers

recombinant CD3 proteins [2] = target: T1, recombinant CD3 proteins; experiment: Octet BLI, recombinant CD3; Full R^2 0.5677
recombinant CD3 proteins [3] = target: T1, recombinant CD3 proteins; experiment: Octet BLI, recombinant CD3; Full R^2 0.8423
recombinant CD3 proteins [4] = target: T1, recombinant CD3 proteins; experiment: Octet BLI, recombinant CD3; Full R^2 0.9968
recombinant CD3 proteins [5] = target: T1, recombinant CD3 proteins; experiment: Octet BLI, recombinant CD3; Full R^2 0.9688

T1 sequence (P07766 23-126): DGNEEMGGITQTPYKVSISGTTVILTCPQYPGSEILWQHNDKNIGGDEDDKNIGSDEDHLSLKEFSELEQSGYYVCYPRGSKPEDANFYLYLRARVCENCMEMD

Kd (recombinant CD3 proteins [3]): 24.4 nM
koff (recombinant CD3 proteins [3]): 0.0578 s⁻¹
kon (recombinant CD3 proteins [3]): 2.37e+06 M⁻¹ s⁻¹
B3: CD3 × CD33-BspAb89 (bispecific antibody)
chain 1: not shown
chain 2: EVQLVQSGAEVKKPGSSVKVSCKASGYTITDSNIHWVRQAPGQSLEWIGYIYPYNGGTDYNQKFKNRATLTVDNPTNTAYMELSSLRSEDTAFYYCVNGNPWLAYWGQGTLVTVSSASTKGPSVFPLAPSSKSTSGGTAALGCLVKDYFPEPVTVSWNSGALTSGVHTFPAVLQSSGLYSLSSVVTVPSSSLGTQTYICNVNHKPSNTKVDKRVEPKSCDKTHTCPPCPAPEFEGGPSVFLFPPKPKDTLMISRTPEVTCVVVDVSHEDPEVKFNWYVDGVEVHNAKTKPREEQYNSTYRVVSVLTVLHQDWLNGKEYKCKVSNKALPASIEKTISKAKGQPREPQVCTLPPSREEMTKNQVSLSCAVKGFYPSDIAVEWESNGQPENNYKTTPPVLDSDGSFFLVSKLTVDKSRWQQGNVFSCSVMHEALHNRFTQKSLSLSPGK
chain 3: DIQLTQSPSTLSASVGDRVTITCRASESLDNYGIRFLTWFQQKPGKAPKLLMYAASNQGSGVPSRFSGSGSGTEFTLTISSLQPDDFATYYCQQTKEVPWSFGQGTKVEVKRTVAAPSVFIFPPSDEQLKSGTASVVCLLNNFYPREAKVQWKVDNALQSGNSQESVTEQDSKDSTYSLSSTLTLSKADYEKHKVYACEVTHQGLSSPVTKSFNRGEC

Kd (recombinant CD3 proteins [4]): 334 nM
koff (recombinant CD3 proteins [4]): 0.00459 s⁻¹
kon (recombinant CD3 proteins [4]): 13800 M⁻¹ s⁻¹
B4: CD3 × CD33-BspAb90 (bispecific antibody)
chain 1: not shown
chain 2: EVQLVQSGAEVKKPGSSVKVSCKASGYTITDSNIHWVRQAPGQSLEWIGYIYPYNGGTDYNQKFKNRATLTVDNPTNTAYMELSSLRSEDTAFYYCVNGNPWLAYWGQGTLVTVSSASTKGPSVFPLAPSSKSTSGGTAALGCLVKDYFPEPVTVSWNSGALTSGVHTFPAVLQSSGLYSLSSVVTVPSSSLGTQTYICNVNHKPSNTKVDKRVEPKSCDKTHTCPPCPAPEFEGGPSVFLFPPKPKDTLMISRTPEVTCVVVDVSHEDPEVKFNWYVDGVEVHNAKTKPREEQYNSTYRVVSVLTVLHQDWLNGKEYKCKVSNKALPASIEKTISKAKGQPREPQVCTLPPSREEMTKNQVSLSCAVKGFYPSDIAVEWESNGQPENNYKTTPPVLDSDGSFFLVSKLTVDKSRWQQGNVFSCSVMHEALHNRFTQKSLSLSPGK
chain 3: DIQLTQSPSTLSASVGDRVTITCRASESLDNYGIRFLTWFQQKPGKAPKLLMYAASNQGSGVPSRFSGSGSGTEFTLTISSLQPDDFATYYCQQTKEVPWSFGQGTKVEVKRTVAAPSVFIFPPSDEQLKSGTASVVCLLNNFYPREAKVQWKVDNALQSGNSQESVTEQDSKDSTYSLSSTLTLSKADYEKHKVYACEVTHQGLSSPVTKSFNRGEC

Kd (recombinant CD3 proteins [5]): 12.6 nM
koff (recombinant CD3 proteins [5]): 0.000778 s⁻¹
kon (recombinant CD3 proteins [5]): 61800 M⁻¹ s⁻¹
B5: CD3 × CD33-BspAb88 (bispecific antibody)
chain 1: QVQLVQSGAEVKKPGASLKVSCKASGYTFTSYYMHWVRQAPGQCLEWMGIINPSNGNTISAQKFQGRVTMTRDTSTSTVYMEMSSLRSEDTAVYYCVRSWGYYVMDVWGQGTTVTVSSGGGGSGGGGSGGGGSGGGGSQTVVTQEPSFSVSPGGTVTLTCGLNSGSVSTSYYPSWYQQTPGQTPRTLIYSTNTRSSGVPDRFSGSILGNKAALTITGAQADDESDYYCVLYMGSGIWVFGCGTKLTVLDKTHTCPPCPAPEFEGGPSVFLFPPKPKDTLMISRTPEVTCVVVDVSHEDPEVKFNWYVDGVEVHNAKTKPREEQYNSTYRVVSVLTVLHQDWLNGKEYKCKVSNKALPASIEKTISKAKGQPREPQVYTLPPCREEMTKNQVSLWCLVKGFYPSDIAVEWESNGQPENNYKTTPPVLDSDGSFFLYSKLTVDKSRWQQGNVFSCSVMHEALHNHYTQKSLSLSPGK
chain 2: EVQLVQSGAEVKKPGSSVKVSCKASGYTITDSNIHWVRQAPGQSLEWIGYIYPYNGGTDYNQKFKNRATLTVDNPTNTAYMELSSLRSEDTAFYYCVNGNPWLAYWGQGTLVTVSSASTKGPSVFPLAPSSKSTSGGTAALGCLVKDYFPEPVTVSWNSGALTSGVHTFPAVLQSSGLYSLSSVVTVPSSSLGTQTYICNVNHKPSNTKVDKRVEPKSCDKTHTCPPCPAPEFEGGPSVFLFPPKPKDTLMISRTPEVTCVVVDVSHEDPEVKFNWYVDGVEVHNAKTKPREEQYNSTYRVVSVLTVLHQDWLNGKEYKCKVSNKALPASIEKTISKAKGQPREPQVCTLPPSREEMTKNQVSLSCAVKGFYPSDIAVEWESNGQPENNYKTTPPVLDSDGSFFLVSKLTVDKSRWQQGNVFSCSVMHEALHNRFTQKSLSLSPGK
chain 3: DIQLTQSPSTLSASVGDRVTITCRASESLDNYGIRFLTWFQQKPGKAPKLLMYAASNQGSGVPSRFSGSGSGTEFTLTISSLQPDDFATYYCQQTKEVPWSFGQGTKVEVKRTVAAPSVFIFPPSDEQLKSGTASVVCLLNNFYPREAKVQWKVDNALQSGNSQESVTEQDSKDSTYSLSSTLTLSKADYEKHKVYACEVTHQGLSSPVTKSFNRGEC

Further lines, the binder ahead of its results:

B1: CD3 × CD33-BspAb86 (bispecific antibody)
chain 1: EVQLVESGGGLVKPGGSLRLSCAASGFTFSSYSMNWVRQAPGKCLEWVSSISRSGTYIYYADSVKGRFTISRDNAKNSLYLQMNSLRAEDTAVYYCARERWELLYFDYWGQGTLVTVSSGGGGSGGGGSGGGGSGGGGSQTVVTQEPSLTVSPGGTVTLTCASSTGAVTSGYYPNWFQQKPGQAPRALIYSTSNKHSWTPARFSGSLLGGKAALTLSGVQPEDEAEYYCLLYYGGAYVFGCGTKVTVLDKTHTCPPCPAPEFEGGPSVFLFPPKPKDTLMISRTPEVTCVVVDVSHEDPEVKFNWYVDGVEVHNAKTKPREEQYNSTYRVVSVLTVLHQDWLNGKEYKCKVSNKALPASIEKTISKAKGQPREPQVYTLPPCREEMTKNQVSLWCLVKGFYPSDIAVEWESNGQPENNYKTTPPVLDSDGSFFLYSKLTVDKSRWQQGNVFSCSVMHEALHNHYTQKSLSLSPGK
chain 2: EVQLVQSGAEVKKPGSSVKVSCKASGYTITDSNIHWVRQAPGQSLEWIGYIYPYNGGTDYNQKFKNRATLTVDNPTNTAYMELSSLRSEDTAFYYCVNGNPWLAYWGQGTLVTVSSASTKGPSVFPLAPSSKSTSGGTAALGCLVKDYFPEPVTVSWNSGALTSGVHTFPAVLQSSGLYSLSSVVTVPSSSLGTQTYICNVNHKPSNTKVDKRVEPKSCDKTHTCPPCPAPEFEGGPSVFLFPPKPKDTLMISRTPEVTCVVVDVSHEDPEVKFNWYVDGVEVHNAKTKPREEQYNSTYRVVSVLTVLHQDWLNGKEYKCKVSNKALPASIEKTISKAKGQPREPQVCTLPPSREEMTKNQVSLSCAVKGFYPSDIAVEWESNGQPENNYKTTPPVLDSDGSFFLVSKLTVDKSRWQQGNVFSCSVMHEALHNRFTQKSLSLSPGK
chain 3: DIQLTQSPSTLSASVGDRVTITCRASESLDNYGIRFLTWFQQKPGKAPKLLMYAASNQGSGVPSRFSGSGSGTEFTLTISSLQPDDFATYYCQQTKEVPWSFGQGTKVEVKRTVAAPSVFIFPPSDEQLKSGTASVVCLLNNFYPREAKVQWKVDNALQSGNSQESVTEQDSKDSTYSLSSTLTLSKADYEKHKVYACEVTHQGLSSPVTKSFNRGEC
Kd (recombinant CD3 proteins [1]): 54.2 nM
koff (recombinant CD3 proteins [1]): 0.0149 s⁻¹
kon (recombinant CD3 proteins [1]): 276000 M⁻¹ s⁻¹

B2: CD3 × CD33-BspAb87 (bispecific antibody)
chain 1: EVQLVESGGGLVKPGGSLRLSCAASGFTVSNYSMNWVRQAPGKCLEWVSSISRSSSYIYYADSVKGRFTISRDNAKNSLFLQMNSLRAEDTAVYYCARERWELLYFDYWGQGTLVTVSSGGGGSGGGGSGGGGSGGGGSQTVVTQEPSFSVSPGGTVTLTCGLSSGSVSTSYYPSWYQQTPGQAPRTLIYSTNTRSSGVPDRFSGSILGNKAALTITGAQADDESDYYCVLYMGSGIWVFGCGTKLTVLDKTHTCPPCPAPEFEGGPSVFLFPPKPKDTLMISRTPEVTCVVVDVSHEDPEVKFNWYVDGVEVHNAKTKPREEQYNSTYRVVSVLTVLHQDWLNGKEYKCKVSNKALPASIEKTISKAKGQPREPQVYTLPPCREEMTKNQVSLWCLVKGFYPSDIAVEWESNGQPENNYKTTPPVLDSDGSFFLYSKLTVDKSRWQQGNVFSCSVMHEALHNHYTQKSLSLSPGK
chain 2: EVQLVQSGAEVKKPGSSVKVSCKASGYTITDSNIHWVRQAPGQSLEWIGYIYPYNGGTDYNQKFKNRATLTVDNPTNTAYMELSSLRSEDTAFYYCVNGNPWLAYWGQGTLVTVSSASTKGPSVFPLAPSSKSTSGGTAALGCLVKDYFPEPVTVSWNSGALTSGVHTFPAVLQSSGLYSLSSVVTVPSSSLGTQTYICNVNHKPSNTKVDKRVEPKSCDKTHTCPPCPAPEFEGGPSVFLFPPKPKDTLMISRTPEVTCVVVDVSHEDPEVKFNWYVDGVEVHNAKTKPREEQYNSTYRVVSVLTVLHQDWLNGKEYKCKVSNKALPASIEKTISKAKGQPREPQVCTLPPSREEMTKNQVSLSCAVKGFYPSDIAVEWESNGQPENNYKTTPPVLDSDGSFFLVSKLTVDKSRWQQGNVFSCSVMHEALHNRFTQKSLSLSPGK
chain 3: DIQLTQSPSTLSASVGDRVTITCRASESLDNYGIRFLTWFQQKPGKAPKLLMYAASNQGSGVPSRFSGSGSGTEFTLTISSLQPDDFATYYCQQTKEVPWSFGQGTKVEVKRTVAAPSVFIFPPSDEQLKSGTASVVCLLNNFYPREAKVQWKVDNALQSGNSQESVTEQDSKDSTYSLSSTLTLSKADYEKHKVYACEVTHQGLSSPVTKSFNRGEC
Kd (recombinant CD3 proteins [2]): 5.17 nM
koff (recombinant CD3 proteins [2]): 0.00307 s⁻¹
kon (recombinant CD3 proteins [2]): 594000 M⁻¹ s⁻¹
